Experimental findings from US6926883B1, “Group (VII) transition-metal complexes with multidentate aminopolycarboxylate ligands and a kit for producing them” (Mallinckrodt Inc, priority 1999, dated 2005) are described below.

Series [1] in a line: in vivo. On the set-up: species or system Lewis rats. As to conditions: male, Lewis, rat, iv, 50 uCi, total radioactivity. As for the experimental part: (§1) These studies were performed to evaluate the biodistribution and imaging potential of these compounds in Lewis rats bearing CA20948 rat pancreatic tumor implants. For each study, six (6) male Lewis rats bearing CA20948 tumor implants were anesthetized with Metofane gas and injected via the jugular vein with 200 μL (using the compounds of Example 2) or 50 μL (using the compound of Example 3) of test article containing ˜50 μCi of activity. The animals were imaged for 100K counts under a gamma camera at 30 minute (n=3) and 4 hours (n=3) post injection after which time they were sacrificed and the following tissues removed for assay: blood, liver, kidneys, muscle, spleen, pancreas, small intestines, adrenals and tumor. The data are presented as % injected dose per gram and % injected dose per whole organ. The comparative data are also represented graphically.

On the set-up of series [2]: species or system Lewis rats. The settings on record: rat, in vivo. As for the experimental part:
During the general biodistribution studies, one additional animal per study was ligated to prevent urination prior to injection. The animal was kept anesthetized for 3 hours post injection, and was subsequently sacrificed, urine removed. The volume and activity of the urine was measured, and a sample was analyzed by HPLC using the method described above.

For series [3], the system named is CA20948 rat pancreatic tumor implants. Nature of the series: in vivo. On the set-up: species or system Lewis rats. As for the experimental part: as §1
The target of another series is T1, SST-2 Receptors (Rattus norvegicus, UniProt P30680).
T1 construct: from tissue; host or cells: Lewis rats bearing CA20948 tumor implants
Nature of the series: in vivo. In kind it is in vivo, Lewis rats. The settings on record: 350 μg cold Y3-Octreotate 30 minutes prior; three hours post injection. As for the experimental part:
(§2) Two rats for each group were used. Group 1 received 500 μL PBS administered subcutaneously in the nape of the neck 30 minutes prior to the injection of [^99mTc(CO)3(DTPA′-Y^3-Octreotate)]. Group 2 received 350 μg Y^3-Octreotate in 500 μL phosphate buffered saline (PBS) administered subcutaneously in the nape of the neck 30 minutes prior to the injection of [^99mTc(CO)3(DTPA′-Y^3-Octreotate)].
(§3) 30 minutes after injection of the cold peptide or saline control, the animals were anesthetized with Metofane gas and injected with 50 μL (50 μCi) of [^99mTc(CO)3(DTPA′-Y^3-Octreotate)]. At three hours post injection the animals were sacrificed, blood samples taken, and then the rats were scintigraphed for 100K counts (FIG. 3). At the conclusion of the scintigraphy, the animals were necropsied, and the following tissues removed for radioassay: liver, kidneys, muscle, spleen, heart, pancreas, adrenals, and tumor. The data were calculated as % injected dose per gram and % injected dose per whole organ.

Series [4] can be described thus: in vivo. It is filed as in vivo, Lewis rats. As to conditions: Lewis, rat, in vivo, total radioactivity. The protocol:
as §2, §3

T1 sequence (P30680 whole entry): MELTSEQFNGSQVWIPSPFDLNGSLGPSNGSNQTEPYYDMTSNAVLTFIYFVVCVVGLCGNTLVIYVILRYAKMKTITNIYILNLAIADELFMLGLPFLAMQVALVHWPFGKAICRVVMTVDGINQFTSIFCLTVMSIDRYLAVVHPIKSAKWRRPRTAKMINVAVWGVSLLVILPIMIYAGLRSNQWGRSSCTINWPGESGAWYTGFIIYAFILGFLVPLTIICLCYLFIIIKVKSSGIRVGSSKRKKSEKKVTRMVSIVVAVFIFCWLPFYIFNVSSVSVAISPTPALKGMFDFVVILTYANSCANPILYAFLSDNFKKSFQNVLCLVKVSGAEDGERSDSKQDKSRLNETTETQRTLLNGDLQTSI

Turning to `C[C@@H](O)[C@H](NC(=O)[C@@H]1CSSC[C@H](NC(=O)[C@@H](Cc2ccccc2)NC(=O)CN(CCN(CCN(CC(=O)O)CC(=O)O)CC(=O)O)CC(=O)O)C(=O)N[C@@H](Cc2ccc(O)cc2)C(=O)N[C@H](Cc2c[nH]c3ccccc23)C(=O)N[C@@H](CCCCN)C(=O)N[C@@H]([C@@H](C)O)C(=O)N1)C(=O)O` [MP-2138, Tc-99m(CO)3-n-DTPA-Tyr-3-Octreotate, metal not drawn], the tissue uptake at 0.5 h in the series “in vivo [1]” (Blood % ID/g) was 0.735 ± 0.027 %ID/g; in “in vivo [1]” (Kidney % ID/g) it was 5.282 ± 0.014 %ID/g; in the series “in vivo [1]” (Liver % ID/g), 0.567 ± 0.015 %ID/g; in “in vivo [1]” (Pancreas % ID/g) it was 1.56 ± 0.11 %ID/g; in the series “in vivo [1]” (Tumor % ID/g), 0.847 ± 0.078 %ID/g. Also, the tissue uptake at 4 h is 0.218 ± 0.01 %ID/g in the series “in vivo [1]” (Blood % ID/g); 5.703 ± 0.052 %ID/g in “in vivo [1]” (Kidney % ID/g); 0.516 ± 0.034 %ID/g in the series “in vivo [1]” (Liver % ID/g); 1.76 ± 0.089 %ID/g in “in vivo [1]” (Pancreas % ID/g); 0.822 ± 0.13 %ID/g in “in vivo [1]” (Tumor % ID/g). Also, the values for the tissue to tissue ratio at 0.5 h in the series “in vivo [1]” (Tumor/Blood), in the series “in vivo [1]” (Tumor/Kidney) and in the series “in vivo [1]” (Tumor/Liver) were 1.1, 0.14 and 1.3, respectively. Besides, the tissue to tissue ratio at 4 h in the series “in vivo [1]” (Tumor/Blood) is 3.7; in “in vivo [1]” (Tumor/Kidney) it was 0.14; in the series “in vivo [1]” (Tumor/Liver), 1.6.

For `C[C@@H](O)[C@H](NC(=O)[C@@H]1CSSC[C@H](NC(=O)[C@@H](Cc2ccccc2)NC(=O)CC(C(=O)O)N(CCN(CC(=O)O)CC(=O)O)CCN(CC(=O)O)CC(=O)O)C(=O)N[C@@H](Cc2ccc(O)cc2)C(=O)N[C@H](Cc2c[nH]c3ccccc23)C(=O)N[C@@H](CCCCN)C(=O)N[C@@H]([C@@H](C)O)C(=O)N1)C(=O)O` (stereo partly drawn) [MP-2148, Tc-99m(CO)3-DTPA′-Tyr-3-Octreotate, metal not drawn], in series [2], the “Activity of Urine” value was found to be 10.4 μCi. Further, in series [2], the “Metabolism: state of compound in urine by HPLC analysis” value was “essentially intact”. Besides, in series [2], the “Volume of Urine” value stood at 1.5 mL. The “Amount of activity in the liver and GI tract compared to [99mTc(CO)3(His-Y3-Octreotate)]” value in series [3] is listed as “significantly less”. In addition, the “Biodistribution characteristics vs iso-DTPA-Y3-Octreotate and n-DTPA-Y3-Octreotate” value in series [3] is “better biodistribution characteristics”. Moreover, the “Hepatobiliary uptake and clearance compared to [99mTc(CO)3(His-Y3-Octreotate)]” value in series [3] was “less hepatobiliary uptake and clearance”. Further, the tissue uptake at 0.5 h in the series “in vivo [1]” (Blood % ID/g) was 0.471 ± 0.035 %ID/g; in the series “in vivo [1]” (Kidney % ID/g) it was 2.14 ± 0.12 %ID/g; in “in vivo [1]” (Liver % ID/g), 0.494 ± 0.011 %ID/g; in “in vivo [1]” (Pancreas % ID/g), 1.15 ± 0.032 %ID/g; in the series “in vivo [1]” (Tumor % ID/g), 0.793 ± 0.041 %ID/g. The tissue uptake at 4 h in the series “in vivo [1]” (Blood % ID/g) was 0.114 ± 0.005 %ID/g; in “in vivo [1]” (Blood (% ID/g at 4 hours p.i.)) it was 0.083 %ID/g; in “in vivo [1]” (Kidney % ID/g), 3.14 ± 0.08 %ID/g; in “in vivo [1]” (Kidney (% ID/g at 4 hours p.i.)), 3.27 %ID/g; in the series “in vivo [1]” (Liver % ID/g) it was 0.363 ± 0.022 %ID/g; in “in vivo [1]” (Liver (% ID/g at 4 hours p.i.)), 0.19 %ID/g. The tissue uptake at 4 h in the series “in vivo [1]” (Pancreas % ID/g) came out at 0.956 ± 0.054 %ID/g; in the series “in vivo [1]” (Pancreas (% ID/g at 4 hours p.i.)), 0.99 %ID/g; in “in vivo [1]” (Tumor % ID/g) it was 0.769 ± 0.069 %ID/g; in “in vivo [1]” (Tumor (% ID/g at 4 hours p.i.)), 1.06 %ID/g. Moreover, the tissue to tissue ratio at 0.5 h in the series “in vivo [1]” (Tumor/Blood) is 1.7; in “in vivo [1]” (Tumor/Kidney), 0.37; in “in vivo [1]” (Tumor/Liver), 1.6. Besides, the tissue to tissue ratio at 4 h worked out at 6.7 in “in vivo [1]” (Tumor/Blood), 0.25 in the series “in vivo [1]” (Tumor/Kidney) and 2.1 in the series “in vivo [1]” (Tumor/Liver). The “Reduction of uptake in the adrenals in somatostatin receptor-blocked animals” value on SST-2 Receptors is reported as 81%. Also, the “Reduction of uptake in the pancreas in somatostatin receptor-blocked animals” value at SST-2 Receptors is given as 95%. The “Reduction of uptake in the tumor in somatostatin receptor-blocked animals” value on SST-2 Receptors amounted to 90%. Besides, the tissue uptake dose at 3 h was determined as 0.042 %ID in “in vivo [4]” (50 uCi, Adrenals % ID/organ); 1.44 %ID in the series “in vivo [4]” (50 uCi, Blood % ID/organ); 0.049 %ID in the series “in vivo [4]” (50 uCi, Heart % ID/organ); 6.82 %ID in “in vivo [4]” (50 uCi, Kidneys % ID/organ); 2.35 %ID in the series “in vivo [4]” (50 uCi, Liver % ID/organ); 6.6 %ID in the series “in vivo [4]” (50 uCi, Muscle % ID/organ). Further, the tissue uptake dose at 3 h in the series “in vivo [4]” (50 uCi, Pancreas % ID/organ) was determined as 0.762 %ID; in “in vivo [4]” (50 uCi, Spleen % ID/organ), 0.044 %ID; in the series “in vivo [4]” (50 uCi, Tumor % ID/organ), 5.18 %ID; in “in vivo [4]” (Adrenals % ID/organ), 0.008 %ID; in “in vivo [4]” (Blood % ID/organ), 1.59 %ID; in “in vivo [4]” (Heart % ID/organ) it was 0.057 %ID. For the same molecule, the tissue uptake dose at 3 h in “in vivo [4]” (Kidneys % ID/organ) is 6.24 %ID; in the series “in vivo [4]” (Liver % ID/organ), 2.61 %ID; in “in vivo [4]” (Muscle % ID/organ), 6.93 %ID; in “in vivo [4]” (Pancreas % ID/organ) it was 0.052 %ID; in the series “in vivo [4]” (Spleen % ID/organ), 0.042 %ID; in the series “in vivo [4]” (Tumor % ID/organ) it was 0.493 %ID. Further, the tissue uptake at 3 h worked out at 0.115 %ID/g in the series “in vivo [4]” (50 uCi, Blood % ID/g); 0.062 %ID/g in “in vivo [4]” (50 uCi, Heart % ID/g); 2.98 %ID/g in the series “in vivo [4]” (50 uCi, Kidneys % ID/g); 0.236 %ID/g in “in vivo [4]” (50 uCi, Liver % ID/g); 0.058 %ID/g in the series “in vivo [4]” (50 uCi, Muscle % ID/g); 0.916 %ID/g in “in vivo [4]” (50 uCi, Pancreas % ID/g). In addition, the tissue uptake at 3 h in “in vivo [4]” (50 uCi, Spleen % ID/g) stood at 0.081 %ID/g; in the series “in vivo [4]” (50 uCi, Tumor % ID/g), 1.11 %ID/g.

“Tc-99m(CO)3-His-Tyr-3-Octreotate [MP-2377, reference compound]”: in series [2], the “Activity of Urine” value is listed as 5.8 μCi, the “Metabolism: state of compound in urine by HPLC analysis” value is “essentially intact” and the “Volume of Urine” value is 1.5 mL. Besides, in series [3], the “Blood (% ID/g at 4 hours p.i.)” value is 0.03 % ID/g, the “Kidney (% ID/g at 4 hours p.i.)” value turned out to be 1.64 % ID/g, the “Liver (% ID/g at 4 hours p.i.)” value amounted to 0.28 % ID/g and the “Pancreas (% ID/g at 4 hours p.i.)” value stood at 2.67 % ID/g. Also, the “Tumor (% ID/g at 4 hours p.i.)” value in series [3] was found to be 1.00 % ID/g.

“Tc-99m(CO)3-iso-DTPA-Tyr-3-Octreotate [MP-2423]” returned a Tumor/Liver in series [3] of 3.
